What all share (assay): flow cytometry on cells
(A flow cytometer gives signals particle by particle.)

Test [1] has as its target human CD34 on CHO/FTVII/C2GnT cells cotransfected with KSGal6ST (human) (UniProt P28906).
Test [2] concerns the target human CD34 on CHO/FTVII/C2GnT cells cotransfected with HEC-GlcNAc6ST (human) (UniProt P28906).
Test [3] concerns the target human CD34 on CHO/FTVII/C2GnT cells cotransfected with KSGal6ST and HEC-GlcNAc6ST (human) (UniProt P28906).
Test [4] addresses human CD34 on CHO/FTVII/C2GnT cells cotransfected with KSGal6ST (human) (UniProt P28906). The source holds these as a separate data set.
Test [5] deals with human CD34 on CHO/FTVII/C2GnT cells cotransfected with HEC-GlcNAc6ST (human) (UniProt P28906). This is another data set of the same source.
Test [6] deals with human CD34 on CHO/FTVII/C2GnT cells cotransfected with KSGal6ST and HEC-GlcNAc6ST (human) (UniProt P28906). This is another data set of the same source.

The values that follow come from paper PMC2133194.

Read-outs that look alike come from different tables or passages of the source.

In test [1], “L-selectin/IgM chimera (from UniProt P18337 39-332) (Fc fusion)” showed an MFI of L-sel/IgM staining (KSGal6ST 1.0 ug, HEC-GlcNAc6ST 0 ug) of 197 MFI. Further, the MFI of L-sel/IgM staining (KSGal6ST 0 ug, HEC-GlcNAc6ST 1.0 ug) in test [2] was determined as 60 MFI. The substance further yielded an MFI of L-sel/IgM staining (KSGal6ST 0.5 ug, HEC-GlcNAc6ST 0.5 ug) in test [3] of 836 MFI. In test [4], this substance had an MFI of L-sel/IgM staining (KSGal6ST 1.0 ug, HEC-GlcNAc6ST 0 ug) of 364 MFI and an MFI of L-sel/IgM staining (KSGal6ST 1.5 ug, HEC-GlcNAc6ST 0 ug) of 391 MFI. In test [5], the MFI of L-sel/IgM staining (KSGal6ST 0 ug, HEC-GlcNAc6ST 1.0 ug) was determined as 114 MFI and the MFI of L-sel/IgM staining (KSGal6ST 0 ug, HEC-GlcNAc6ST 1.5 ug) turned out to be 163 MFI. In test [6], this substance gave an MFI of L-sel/IgM staining (KSGal6ST 0.5 ug, HEC-GlcNAc6ST 0.5 ug) of 935 MFI; an MFI of L-sel/IgM staining (KSGal6ST 0.5 ug, HEC-GlcNAc6ST 1.0 ug) of 830 MFI; an MFI of L-sel/IgM staining (KSGal6ST 1.0 ug, HEC-GlcNAc6ST 0.5 ug) of 917 MFI.
